Test results published in the supplement of paper PMC11316812.
± gives the standard deviation of the averaged measurements.

What was measured:
MCF7 = experiment: percentage of EdU-negative (G0-arrested) nuclei per well, 72 h; higher = more G0 arrest; settings: reference: sequence is the full UniProt precursor, the tested protein was the secreted form or ectodomain
hTERT-HMEC = experiment: as above; settings: reference: sequence is the full UniProt precursor, the tested protein was the secreted form or ectodomain
[1] = protein concentration 0.0225 µM
[2] = protein concentration 0.0175 µM
[3] = protein concentration 0.00725 µM
[4] = protein concentration 0.0725 µM
[5] = protein concentration 0.03125 µM
[6] = protein concentration 0.3125 µM
[7] = protein concentration 0.012015 µM
[8] = protein concentration 0.12015 µM
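Also: secreted proteins added to cultured cells, EdU pulse at the end, nuclei found by Hoechst imaging, EdU status from nuclear versus surrounding ring intensity ratio, PBS as neutral control.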

Chain of Q9UBP4 (chain, as listed by the source): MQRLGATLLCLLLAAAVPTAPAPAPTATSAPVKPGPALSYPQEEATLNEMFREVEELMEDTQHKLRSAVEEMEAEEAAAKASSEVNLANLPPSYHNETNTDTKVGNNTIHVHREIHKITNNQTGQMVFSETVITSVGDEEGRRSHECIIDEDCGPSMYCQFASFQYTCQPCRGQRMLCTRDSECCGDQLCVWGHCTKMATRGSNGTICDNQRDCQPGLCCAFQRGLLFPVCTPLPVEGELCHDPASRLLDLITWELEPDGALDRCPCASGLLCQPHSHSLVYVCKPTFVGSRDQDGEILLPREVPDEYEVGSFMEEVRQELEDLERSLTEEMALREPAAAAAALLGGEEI

Substance: MKPALLEVMRMNRICRMVLATCLGSFILVIFYFQSMLHPVMRRNPFGVDICCRKGSRSPLQELYNPIQLELSNTAVLHQMRRDQVTDTCRANSATSRKRRVLTPNDLKHLVVDEDHELIYCYVPKVACTNWKRLMMVLTGRGKYSDPMEIPANEAHVSANLKTLNQYSIPEINHRLKSYMKFLFVREPFERLVSAYRNKFTQKYNISFHKRYGTKIIKRQRKNATQEALRKGDDVKFEEFVAYLIDPHTQREEPFNEHWQTVYSLCHPCHIHYDLVGKYETLEEDSNYVLQLAGVGSYLKFPTYAKSTRTTDEMTTEFFQNISSEHQTQLYEVYKLDFLMFNYSVPSYLKLE [Q9NPF2]
- percentage of EdU-negative (MCF7; [1]): 23.2 ± 1.9%
- percentage of EdU-negative (MCF7; protein concentration 0.225 µM): 24.6 ± 1.8%
- percentage of EdU-negative (hTERT-HMEC; [1]): 5.07 ± 0.051%
- percentage of EdU-negative (hTERT-HMEC; protein concentration 0.225 µM): 18.8 ± 3%

Substance: MTRGGPGGRPGLPQPPPLLLLLLLLPLLLVTAEPPKPAGVYYATAYWMPAEKTVQVKNVMDKNGDAYGFYNNSVKTTGWGILEIRAGYGSQTLSNEIIMFVAGFLEGYLTAPHMNDHYTNLYPQLITKPSIMDKVQDFMEKQDKWTRKNIKEYKTDSFWRHTGYVMAQIDGLYVGAKKRAILEGTKPMTLFQIQFLNSVGDLLDLIPSLSPTKNGSLKVFKRWDMGHCSALIKVLPGFENILFAHSSWYTYAAMLRIYKHWDFNVIDKDTSSSRLSFSSYPGFLESLDDFYILSSGLILLQTTNSVFNKTLLKQVIPETLLSWQRVRVANMMADSGKRWADIFSKYNSGTYNNQYMVLDLKKVKLNHSLDKGTLYIVEQIPTYVEYSEQTDVLRKGYWPSYNVPFHEKIYNWSGYPLLVQKLGLDYSYDLAPRAKIFRRDQGKVTDTASMKYIMRYNNYKKDPYSRGDPCNTICCREDLNSPNPSPGGCYDTKVADIYLASQYTSYAISGPTVQGGLPVFRWDRFNKTLHQGMPEVYNFDFITMKPILKLDIK [Q6P4A8]
- percentage of EdU-negative (MCF7; [2]): 25.6 ± 2.5%
- percentage of EdU-negative (MCF7; protein concentration 0.175 µM): 27.7 ± 0.8%
- percentage of EdU-negative (hTERT-HMEC; [2]): 4.42 ± 0.062%
- percentage of EdU-negative (hTERT-HMEC; protein concentration 0.175 µM): 19.7 ± 1.7%

Substance: MRPPGFRNFLLLASSLLFAGLSAVPQSFSPSLRSWPGAACRLSRAESERRCRAPGQPPGAALCHGRGRCDCGVCICHVTEPGMFFGPLCECHEWVCETYDGSTCAGHGKCDCGKCKCDQGWYGDACQYPTNCDLTKKKSNQMCKNSQDIICSNAGTCHCGRCKCDNSDGSGLVYGKFCECDDRECIDDETEEICGGHGKCYCGNCYCKAGWHGDKCEFQCDITPWESKRRCTSPDGKICSNRGTCVCGECTCHDVDPTGDWGDIHGDTCECDERDCRAVYDRYSDDFCSGHGQCNCGRCDCKAGWYGKKCEHPQSCTLSAEESIRKCQGSSDLPCSGRGKCECGKCTCYPPGDRRVYGKTCECDDRRCEDLDGVVCGGHGTCSCGRCVCERGWFGKLCQHPRKCNMTEEQSKNLCESADGILCSGKGSCHCGKCICSAEEWYISGEFCDCDDRDCDKHDGLICTGNGICSCGNCECWDGWNGNACEIWLGSEYP
- percentage of EdU-negative (MCF7; [3]): 26.1 ± 1.1%
- percentage of EdU-negative (MCF7; [4]): 24.7 ± 1.8%
- percentage of EdU-negative (hTERT-HMEC; [3]): 4.34 ± 0.65%
- percentage of EdU-negative (hTERT-HMEC; [4]): 6.33 ± 0.52%

Substance: MKTLQFFFLFCCWKAICCNSCELTNITIAIEKEECRFCISINTTWCAGYCYTRDLVYKDPARPKIQKTCTFKELVYETVRVPGCAHHADSLYTYPVATQCHCGKCDSDSTDCTVRGLGPSYCSFGEMKE
- percentage of EdU-negative (MCF7; [5]): 25.3 ± 0.9%
- percentage of EdU-negative (MCF7; [6]): 26.6 ± 1.5%
- percentage of EdU-negative (hTERT-HMEC; [5]): 5.26 ± 0.36%
- percentage of EdU-negative (hTERT-HMEC; [6]): 4.61 ± 0.34%

Substance: Q9UBP4
- percentage of EdU-negative (MCF7; [7]): 24.3 ± 2.6%
- percentage of EdU-negative (MCF7; [8]): 25.52 ± 0.066%
- percentage of EdU-negative (hTERT-HMEC; [7]): 5.79 ± 1.3%
- percentage of EdU-negative (hTERT-HMEC; [8]): 6.35 ± 0.93%

Substance: MFSTKALLLAGLISTALAGPWANICAGKSSNEIRTCDRHGCGQYSAQRSQRPHQGVDILCSAGSTVYAPFTGMIVGQEKPYQNKNAINNGVRISGRGFCVKMFYIKPIKYKGPIKKGEKLGTLLPLQKVYPGIQSHVHIENCDSSDPTAYL
- percentage of EdU-negative (MCF7; [1]): 23.8 ± 1.3%
- percentage of EdU-negative (MCF7; protein concentration 0.225 µM): 26.3 ± 0.79%
- percentage of EdU-negative (hTERT-HMEC; [1]): 4.82 ± 1.7%
- percentage of EdU-negative (hTERT-HMEC; protein concentration 0.225 µM): 7.53 ± 0.43%

Substance: MKISILLMFLWGLSCALPVTRYQNNESEDSEEWKGHLAQAPTPPLESSESSEGSKVSSEEQANEDPSDSTQSEEGLGSDDHQYIYRLAGGFSRSTGKGGDDKDDDEDDSGDDTFGDDDSGPGPKDRQEGGNSRLGSDEDSDDTIQASEESAPQGQDSAQDTTSESRELDNEDRVDSKPEGGDSTQESESEEHWVGGGSDGESSHGDGSELDDEGMQSDDPESIRSERGNSRMNSAGMKSKESGENSEQANTQDSGGSQLLEHPSRKIFRKSRISEEDDRSELDDNNTMEEVKSDSTENSNSRDTGLSQPRRDSKGDSQEDSKENLSQEESQNVDGPSSESSQEANLSSQENSSESQEEVVSESRGDNPDPTTSYVEDQEDSDSSEEDSSHTLSHSKSESREEQADSESSESLNFSEESPESPEDENSSSQEGLQSHSSSAESQSEESHSEEDDSDSQDSSRSKEDSNSTESKSSSEEDGQLKNIEIESRKLTVDAYHNKPIGDQDDNDCQDGY
- percentage of EdU-negative (MCF7; protein concentration 0.021 µM): 24.6 ± 0.6%
- percentage of EdU-negative (MCF7; protein concentration 0.21 µM): 26.3 ± 0.99%
- percentage of EdU-negative (hTERT-HMEC; protein concentration 0.021 µM): 4.74 ± 0.51%
- percentage of EdU-negative (hTERT-HMEC; protein concentration 0.21 µM): 14.1 ± 2.1%
